Results from PMC6155126.

What was measured:
[1] = biological target: FLAG-PAXX (human) (UniProt Q9BUH6); assay: affinity purification with mass spectrometry; anti-FLAG IP of FLAG-PAXX, -XLF, -XRCC4, -DNA-PKcs (stable) or FLAG-Pol λ (transient) from nucleoplasmic and benzonase-treated soluble chromatin fractions of HEK293F cells; FLAG peptide elution; LC-MS/MS
[2] = biological target: FLAG-Pol λ-WT (human) (UniProt Q9UGP5)
Chain of FLAG-Pol λ-WT (human) (Q9UGP5 whole entry): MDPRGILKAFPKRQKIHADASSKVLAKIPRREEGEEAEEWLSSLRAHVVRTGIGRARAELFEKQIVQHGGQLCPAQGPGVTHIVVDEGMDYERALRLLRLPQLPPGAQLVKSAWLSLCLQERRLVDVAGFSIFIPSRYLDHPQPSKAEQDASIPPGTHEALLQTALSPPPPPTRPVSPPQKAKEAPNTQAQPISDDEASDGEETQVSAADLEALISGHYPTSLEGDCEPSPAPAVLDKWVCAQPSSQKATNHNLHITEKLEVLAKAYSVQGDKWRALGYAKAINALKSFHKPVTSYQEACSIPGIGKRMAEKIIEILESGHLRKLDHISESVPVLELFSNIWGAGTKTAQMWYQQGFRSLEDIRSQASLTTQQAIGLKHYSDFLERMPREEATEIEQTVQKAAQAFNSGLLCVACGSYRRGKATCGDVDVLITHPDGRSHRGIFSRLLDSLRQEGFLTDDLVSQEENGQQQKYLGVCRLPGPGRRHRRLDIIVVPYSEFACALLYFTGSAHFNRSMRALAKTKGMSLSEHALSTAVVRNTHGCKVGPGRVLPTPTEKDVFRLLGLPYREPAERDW

stoichiometry N [1]	Pol λ-dependent gap filling synthesis on a 5nt-gapped dsDNA (33-mer), stimulation by added protein over a concentration series [2] [fold]	Substance
1 to 1.5		DNA-PK holoenzyme (endogenous) (from UniProt P78527 1-4128; P12956 1-609; P13010 1-732) (complex)
	< 10	FLAG-PAXX (from UniProt Q9BUH6 1-204) (natural protein)
